Assay results taken from patent US20090023658A1 (TOSHIKAZU NAKAMURA, published 2009).
One block for each molecule: values may come before it.

What was measured:
[1] = target: c-Met/HGF receptor of rat liver plasma membrane (rat) (UniProt P97523); assay: Scatchard analysis, 125I-HGF on rat liver plasma membrane
[2] = target: c-Met/HGF receptor expressed on the lung tumor cell line A549 (UniProt P08581); assay: cell-based or functional assay
[3] = target: c-Met/HGF receptor of rat liver plasma membrane (rat) (UniProt P97523); assay: displacement of 60 pM 125I-HGF from rat liver plasma membrane
[4] = target: T1, c-Met/HGF receptor of rat liver plasma membrane (rat, UniProt P97523 25-1382); assay: as above
T1 construct: whole, on cells; The assay used a plasma membrane preparation, not a purified receptor; also called cell surface receptor; HGF receptors
From the text: (§1) Using the HGF/NK4 prepared in Example 1, its binding affinity for the cell surface receptor was investigated. As a control experiment, the binding affinity of HGF for the cell surface receptor was also investigated. In this connection, the HGF/NK4 and HGF were radio-labeled (¹²⁵I-HGF/NK4 and ¹²⁵I-HGF) by the chloramine-T method, and as the cell surface receptor sample, the plasma membrane prepared from the rat liver was used.
Then, to investigate whether HGF/NK4 is a competitive antagonist of HGF, the liver plasma membrane (50 μg) was incubated in the presence of ¹²⁵I-HGF alone (60 pM) or a mixture of ¹²⁵I-HGF and a varying amount of unlabeled HGF or unlabeled HGF/NK4.

[5] = target: T1, c-Met/HGF receptor of rat liver plasma …; assay: Scatchard analysis, 125I-HGF/NK4 on rat liver plasma membrane
From the text: as §1

c-Met/HGF receptor expressed on the lung tumor cell line A549, sequence (P08581 25-1390 limits assumed): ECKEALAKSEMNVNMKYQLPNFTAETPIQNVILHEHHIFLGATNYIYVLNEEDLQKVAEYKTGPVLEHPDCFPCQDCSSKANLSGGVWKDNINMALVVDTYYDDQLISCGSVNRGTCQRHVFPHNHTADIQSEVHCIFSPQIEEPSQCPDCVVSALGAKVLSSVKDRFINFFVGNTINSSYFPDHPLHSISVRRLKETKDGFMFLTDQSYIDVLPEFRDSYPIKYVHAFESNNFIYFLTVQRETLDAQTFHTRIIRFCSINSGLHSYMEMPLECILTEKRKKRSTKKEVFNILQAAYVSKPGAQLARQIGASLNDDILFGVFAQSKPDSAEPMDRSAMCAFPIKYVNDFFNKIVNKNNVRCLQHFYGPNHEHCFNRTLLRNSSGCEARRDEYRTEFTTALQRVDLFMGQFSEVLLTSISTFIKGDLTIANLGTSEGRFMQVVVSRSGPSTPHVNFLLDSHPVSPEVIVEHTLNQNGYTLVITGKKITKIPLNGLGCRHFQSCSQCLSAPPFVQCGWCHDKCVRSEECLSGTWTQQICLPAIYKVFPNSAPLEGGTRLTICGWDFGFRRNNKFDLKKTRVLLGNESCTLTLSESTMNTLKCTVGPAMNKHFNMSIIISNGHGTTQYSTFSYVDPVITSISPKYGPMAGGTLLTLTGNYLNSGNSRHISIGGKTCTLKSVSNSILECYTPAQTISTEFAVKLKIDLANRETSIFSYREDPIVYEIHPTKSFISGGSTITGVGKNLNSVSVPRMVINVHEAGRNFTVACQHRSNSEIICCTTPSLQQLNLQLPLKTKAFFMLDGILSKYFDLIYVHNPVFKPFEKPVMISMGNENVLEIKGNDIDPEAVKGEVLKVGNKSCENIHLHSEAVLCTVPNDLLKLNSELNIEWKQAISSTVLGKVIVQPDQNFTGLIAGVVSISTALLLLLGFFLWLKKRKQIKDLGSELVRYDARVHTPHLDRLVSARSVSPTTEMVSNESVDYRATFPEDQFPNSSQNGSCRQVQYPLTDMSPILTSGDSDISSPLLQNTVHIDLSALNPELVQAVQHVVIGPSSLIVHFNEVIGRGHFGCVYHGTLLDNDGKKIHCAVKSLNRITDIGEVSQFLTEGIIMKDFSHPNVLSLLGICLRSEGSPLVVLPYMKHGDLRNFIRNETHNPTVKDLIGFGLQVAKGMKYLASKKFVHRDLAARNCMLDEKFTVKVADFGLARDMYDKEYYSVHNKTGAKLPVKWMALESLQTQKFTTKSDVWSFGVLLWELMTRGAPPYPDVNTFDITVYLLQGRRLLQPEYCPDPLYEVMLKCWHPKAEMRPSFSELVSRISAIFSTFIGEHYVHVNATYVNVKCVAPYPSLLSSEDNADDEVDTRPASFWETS

- Kd [1]: 0.0645 nM
- tyrosine phosphorylation of c-Met in A549 cells (immunoprecipitation with anti-c-Met antibody, Western blot with anti-phosphotyrosine antibody) [2]: 110 pM
- IC50 [3]: 0.06 nM
Molecule: recombinant human hepatocyte growth factor (HGF), heterodimer of alpha-chain and beta-chain (from UniProt P14210 32-494; P14210 495-728) (ligand)

- IC50 [4]: 0.6 nM
- Kd [5]: 0.486 nM
B1: HGF/NK4 (PyrGlu32-Val478 region of human HGF, obtained by elastase digestion of recombinant HGF) (ligand)
chain: ERKRRNTIHEFKKSAKTTLIKIDPALKIKTKKVNTADQCANRCTRNKGLPFTCKAFVFDKARKQCLWFPFNSMSSGVKKEFGHEFDLYENKDYIRNCIIGKGRSYKGTVSITKSGIKCQPWSSMIPHEHSFLPSSYRGKDLQENYCRNPRGEEGGPWCFTSNPEVRYEVCDIPQCSEVECMTCNGESYRGLMDHTESGKICQRWDHQTPHRHKFLPERYPDKGFDDNYCRNPDGQPRPWCYTLDPHTRWEYCAIKTCADNTMNDTDVPLETTECIQGQGEGYRGTVNTIWNGIPCQRWDSQYPHEHDMTPENFKCKDLRENYCRNPDGSESPWCFTTDPNIRVGYCSQIPNCDMSHGQDCYRGNGKNYMGNLSQTRSGLTCSMWDKNMEDLHRHIFWEPDASKLNENYCRNPDDDAHGPWCYTGNPLIPWDYCPISRCEGDTTPTIV
modifications: N-terminal residue is pyroglutamate (PyrGlu32 by prepro-HGF numbering; Xaa at position 1 of SEQ ID NO:1)
notes: also called unlabeled HGF/NK4
